Experimental data from article PMC4773433, “The Bub1–Plk1 kinase complex promotes spindle checkpoint signalling through Cdc20 phosphorylation” (Nature Communications, 2016).

How the values were obtained:
His6-Cdc20^ΔN60 WT = molecular target: T1, His6-Cdc20^ΔN60 WT (human, UniProt Q12834 61-499); assay: pull-down; purified His6–Cdc20^ΔN60 WT or S92E immobilised on Ni-NTA beads, incubated with BubR1N and Mad2, 1 h at room temperature, five washes, immunoblotting; details: both partners purified
T1 construct: Cdc20, human, residues 61-499 (Cdc20^ΔN60); also called Cdc20 WT; recombinant Cdc20; source: Sf9, purified (Ni-NTA)
T1 sequence (Q12834 61-499, stated change not applied): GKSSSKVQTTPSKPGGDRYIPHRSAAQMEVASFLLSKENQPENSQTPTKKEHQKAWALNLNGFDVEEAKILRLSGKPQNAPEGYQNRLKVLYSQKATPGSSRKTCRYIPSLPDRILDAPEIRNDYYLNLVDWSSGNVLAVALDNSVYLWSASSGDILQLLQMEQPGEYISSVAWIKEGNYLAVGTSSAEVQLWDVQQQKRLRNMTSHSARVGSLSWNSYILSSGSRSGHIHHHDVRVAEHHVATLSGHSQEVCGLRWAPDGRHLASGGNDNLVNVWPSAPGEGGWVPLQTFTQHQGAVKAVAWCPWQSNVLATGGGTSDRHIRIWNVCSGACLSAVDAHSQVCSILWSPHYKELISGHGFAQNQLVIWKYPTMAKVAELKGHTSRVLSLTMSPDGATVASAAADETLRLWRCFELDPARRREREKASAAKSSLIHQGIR

His6-Cdc20^ΔN60 S92E = molecular target: T2, His6-Cdc20^ΔN60 S92E (human, UniProt Q12834 61-499, S92E); assay: as above; details: both partners purified
T2 construct: Cdc20, human, residues 61-499 (Cdc20^ΔN60), phospho-mimicking S92E; also called Cdc20 S92E; source: Sf9, purified (Ni-NTA)
T2 sequence (Q12834 61-499 S92E): as the sequence (Q12834 61-499, stated change not applied) above, with S32E counted along it

binding result (His6-Cdc20^ΔN60 WT): binds | binding result (His6-Cdc20^ΔN60 S92E): binds
B1: BubR1 N-terminal fragment (BubR1N; residues 1–370) (domain or fragment, human, UniProt O60566 1-370, looked up)
chain: MAAVKKEGGALSEAMSLEGDEWELSKENVQPLRQGRIMSTLQGALAQESACNNTLQQQKRAFEYEIRFYTGNDPLDVWDRYISWTEQNYPQGGKESNMSTLLERAVEALQGEKRYYSDPRFLNLWLKLGRLCNEPLDMYSYLHNQGIGVSLAQFYISWAEEYEARENFRKADAIFQEGIQQKAEPLERLQSQHRQFQARVSRQTLLALEKEEEEEVFESSVPQRSTLAELKSKGKKTARAPIIRVGGALKAPSQNRGLQNPFPQQMQNNSRITVFDENADEASTAELSKPTVQPWIAPPMPRAKENELQAGPWNTGRSLEHRPRGNTASLIAVPAVLPSFTPYVEETARQPVMTPCKIEPSINHILSTRK
notes: source: bacteria, purified (Ni-NTA, TEV digestion, Resource Q, Superdex 200)
